Patent US20220185895A1

Key:
[1] = molecular target: human CD94 (Natural killer cells antigen CD94) (human) (UniProt Q13241); test: flow cytometry with APC MESF bead calibration, healthy donor PBL, CD3-/CD57+ NK cells
[2] = molecular target: human CD94 (Natural killer cells antigen CD94) (human) (UniProt Q13241); test: flow cytometry with APC MESF bead calibration, CLPD-NK patient PBMC, CD3+CD16+ T-LGL
[3] = molecular target: human CD94 (Natural killer cells antigen CD94) (human) (UniProt Q13241); test: flow cytometry with APC MESF bead calibration, average over healthy donor PBMC, CD3-CD56+ NK cells
[4] = molecular target: human CD94 (Natural killer cells antigen CD94) (human) (UniProt Q13241); test: flow cytometry with APC MESF bead calibration, average over healthy donor PBMC, CD3-CD16+ NK cells
[5] = molecular target: human CD94 (Natural killer cells antigen CD94) (human) (UniProt Q13241); test: flow cytometry, healthy donor PBL, CD3+CD8+ T cells
[6] = molecular target: human CD94 (Natural killer cells antigen CD94) (human) (UniProt Q13241); test: flow cytometry with APC MESF bead calibration, normal liver, NK cells (panel headed CD45+CD3+CD56+)
[7] = molecular target: human CD94 (Natural killer cells antigen CD94) (human) (UniProt Q13241); test: flow cytometry with APC MESF bead calibration, CLPD-NK patient PBMC, CD3+CD8+ T cells
[8] = molecular target: human CD94 (Natural killer cells antigen CD94) (human) (UniProt Q13241); test: flow cytometry with APC MESF bead calibration, average over healthy donor PBMC, CD3-CD57+ NK cells
[9] = molecular target: human CD94 (Natural killer cells antigen CD94) (human) (UniProt Q13241); test: flow cytometry with APC MESF bead calibration, healthy donor PBL, CD3-/CD16+ NK cells
[10] = molecular target: human CD94 (Natural killer cells antigen CD94) (human) (UniProt Q13241); test: flow cytometry with APC MESF bead calibration, normal liver, CD45+CD3+CD4+ T cells
[11] = molecular target: human CD94 (Natural killer cells antigen CD94) (human) (UniProt Q13241); test: flow cytometry with APC MESF bead calibration, CD94dim T-LGLL patient PBMC, CD3-CD16+ NK cells [Cont.]
[12] = molecular target: human CD94 (Natural killer cells antigen CD94) (human) (UniProt Q13241); test: flow cytometry, CD94dim T-LGLL patient PBMC, CD3+CD16- T lymphocytes [Cont.]
[13] = molecular target: human CD94 (Natural killer cells antigen CD94) (human) (UniProt Q13241); test: flow cytometry, normal liver, CD45+CD3+CD4+ T cells
[14] = molecular target: human CD94 (Natural killer cells antigen CD94) (human) (UniProt Q13241); test: flow cytometry with APC MESF bead calibration, healthy donor PBL, CD3+CD8+ T cells
[15] = molecular target: human CD94 (Natural killer cells antigen CD94) (human) (UniProt Q13241); test: flow cytometry, normal liver, CD45+CD3+CD8+ T cells
[16] = molecular target: human CD94 (Natural killer cells antigen CD94) (human) (UniProt Q13241); test: flow cytometry, CLPD-NK patient PBMC, CD3+CD16+ T-LGL
[17] = molecular target: human CD94 (Natural killer cells antigen CD94) (human) (UniProt Q13241); test: flow cytometry with APC MESF bead calibration, average over healthy donor PBMC, CD3+CD8+ (CD94+) T cells
[18] = molecular target: human CD94 (Natural killer cells antigen CD94) (human) (UniProt Q13241); test: flow cytometry with APC MESF bead calibration, CD94dim T-LGLL patient PBMC, CD3+CD16- T lymphocytes [Cont.]
[19] = molecular target: human CD94 (Natural killer cells antigen CD94) (human) (UniProt Q13241); test: flow cytometry with APC MESF bead calibration, normal liver, CD45+CD3+CD8+ T cells
[20] = molecular target: human CD94 (Natural killer cells antigen CD94) (human) (UniProt Q13241); test: flow cytometry with APC MESF bead calibration, CD94bright T-LGLL patient PBMC, CD3+CD16- T lymphocytes [Cont.]
[21] = molecular target: human CD94 (Natural killer cells antigen CD94) (human) (UniProt Q13241); test: flow cytometry, CD94bright T-LGLL patient PBMC, CD3+CD16- T lymphocytes [Cont.]
[22] = molecular target: human CD94 (Natural killer cells antigen CD94) (human) (UniProt Q13241); test: flow cytometry with APC MESF bead calibration, healthy donor PBL, CD3-/CD56+ NK cells
[23] = molecular target: human CD94 (Natural killer cells antigen CD94) (human) (UniProt Q13241); test: flow cytometry with APC MESF bead calibration, CD94bright T-LGLL patient PBMC, CD3+CD16+ leukemic cells [Cont.]
[24] = molecular target: human CD94 (Natural killer cells antigen CD94) (human) (UniProt Q13241); test: flow cytometry with APC MESF bead calibration, CD94bright T-LGLL patient PBMC, CD3-CD16+ NK cells [Cont.]
[25] = molecular target: human NKG2A (NKG2-A/NKG2-B type II integral membrane protein) (human) (UniProt P26715); test: cell-based or functional assay
UniProt P26715, sequence (P26715 whole entry): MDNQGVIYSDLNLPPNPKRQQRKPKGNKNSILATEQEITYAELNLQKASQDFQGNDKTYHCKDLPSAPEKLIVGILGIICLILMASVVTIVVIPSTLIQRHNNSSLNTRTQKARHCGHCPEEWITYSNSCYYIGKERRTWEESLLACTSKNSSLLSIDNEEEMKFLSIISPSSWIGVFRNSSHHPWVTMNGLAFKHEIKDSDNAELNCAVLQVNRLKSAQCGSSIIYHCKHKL

UniProt Q13241, sequence (Q13241 whole entry): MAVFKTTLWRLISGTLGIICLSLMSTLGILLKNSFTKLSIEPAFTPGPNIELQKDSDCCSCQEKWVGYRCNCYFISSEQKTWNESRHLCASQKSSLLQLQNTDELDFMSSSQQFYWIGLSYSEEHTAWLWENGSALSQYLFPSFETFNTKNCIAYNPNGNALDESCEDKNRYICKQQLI

## anti-CD94 antibody clone HP-3D9, APC-conjugated (BD Bioscience 559876)
[1]
  CD94 receptor number (receptors per cell): 39000
[2]
  CD94 receptor number (receptors per cell): 51000
[3]
  Antibody binding capacity (receptors per cell): 117000
[4]
  Antibody binding capacity (receptors per cell): 77000
[5]
  % positive cells: 30%
[6]
  CD94 receptor number (receptors per cell): 195000
[7]
  CD94 receptor number (receptors per cell): 28000
[8]
  Antibody binding capacity (receptors per cell): 73000
[9]
  CD94 receptor number (receptors per cell): 45000
[10]
  CD94 receptor number (receptors per cell): 55000
[11]
  CD94 receptor number (receptors per cell): 14000
[12]
  % positive cells: 14%
[13]
  % positive cells: 13%
[14]
  CD94 receptor number (receptors per cell): 28000
[15]
  % positive cells: 25%
[16]
  % positive cells: 16%
[17]
  Antibody binding capacity (receptors per cell): 45000
[18]
  CD94 receptor number (receptors per cell): 33000
[19]
  CD94 receptor number (receptors per cell): 97000
[20]
  CD94 receptor number (receptors per cell): 172000
[21]
  % positive cells: 31%
[22]
  CD94 receptor number (receptors per cell): 51000
[23]
  CD94 receptor number (receptors per cell): 177000
[24]
  CD94 receptor number (receptors per cell): 51000

## anti-NKG2A Z199 non-fucosylated antibody
[25]
  ADCC assay, depletion of CD3-CD16+ NK leukemic cells in frozen CLPD-NK patient PBMCs, EC50: 3 ng/mL
  ADCC assay, depletion of CD3-CD56bright NK cells in fresh healthy donor PBMCs, EC50: 3 ng/mL
  ADCC assay, potency against the fucosylated Z199 antibody: 13 times

## anti-NKG2A Z199 fucosylated antibody
[25]
  ADCC assay, depletion of CD3-CD56bright NK cells in fresh healthy donor PBMCs, EC50: 40 ng/mL
